According to patent EP4725963A1:

Target: human NPR1 full-length protein overexpressed on CHO-K1 cells (human) (UniProt P16066)
Assay: cell-based or functional assay

Chain of human NPR1 full-length protein overexpressed on CHO-K1 cells (human) (P16066 33-1061): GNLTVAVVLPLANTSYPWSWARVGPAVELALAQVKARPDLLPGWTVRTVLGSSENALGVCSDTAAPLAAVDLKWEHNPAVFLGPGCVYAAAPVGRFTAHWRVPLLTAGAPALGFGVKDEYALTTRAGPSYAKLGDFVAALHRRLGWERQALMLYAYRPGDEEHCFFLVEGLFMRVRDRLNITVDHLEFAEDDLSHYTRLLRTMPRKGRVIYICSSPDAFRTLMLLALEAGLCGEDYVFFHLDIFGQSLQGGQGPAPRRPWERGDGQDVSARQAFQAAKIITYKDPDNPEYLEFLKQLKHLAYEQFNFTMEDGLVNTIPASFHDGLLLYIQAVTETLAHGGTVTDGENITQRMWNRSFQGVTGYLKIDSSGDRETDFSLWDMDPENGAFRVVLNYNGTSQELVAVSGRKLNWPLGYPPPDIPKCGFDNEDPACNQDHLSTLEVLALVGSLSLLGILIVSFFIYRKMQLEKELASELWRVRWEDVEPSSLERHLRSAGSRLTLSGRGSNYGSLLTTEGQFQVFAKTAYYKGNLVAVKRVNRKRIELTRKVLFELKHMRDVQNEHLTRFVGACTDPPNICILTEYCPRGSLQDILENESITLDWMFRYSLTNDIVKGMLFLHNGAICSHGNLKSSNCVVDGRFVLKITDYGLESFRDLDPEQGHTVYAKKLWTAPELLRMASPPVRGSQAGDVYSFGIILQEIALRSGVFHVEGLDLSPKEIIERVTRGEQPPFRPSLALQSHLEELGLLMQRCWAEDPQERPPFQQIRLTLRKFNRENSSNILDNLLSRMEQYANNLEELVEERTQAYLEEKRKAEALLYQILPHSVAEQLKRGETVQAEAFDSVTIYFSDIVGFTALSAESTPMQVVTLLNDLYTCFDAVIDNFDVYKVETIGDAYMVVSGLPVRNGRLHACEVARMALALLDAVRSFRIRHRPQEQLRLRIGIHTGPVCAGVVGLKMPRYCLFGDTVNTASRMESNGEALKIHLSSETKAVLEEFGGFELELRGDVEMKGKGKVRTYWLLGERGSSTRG

Ratio (without ANP) of NPR1 antigens remaining on the cell surface after endocytosis to the initial number, 10 min, 20 µg/mL: 0.56 | Ratio (without ANP) of NPR1 antigens remaining on the cell surface after endocytosis to the initial number, 1 h, 20 µg/mL: 0.46 | Ratio (without ANP) of NPR1 antigens remaining on the cell surface after endocytosis to the initial number, 7 hrs, 20 µg/mL: 0.3 | Ratio (without ANP) of NPR1 antigens remaining on the cell surface after endocytosis to the initial number, 24 hrs, 20 µg/mL: 0.39 | Sum of signal changes (cGMP production in cells before and after endocytosis treatment): 1.08
Substance: REGN-5381 (antibody)
